These results are taken from patent US20210371516A1.

Changes are numbered by the printed parent chain.

Assay [1] has as its target antigen on NCI-H187 classic small cell lung carcinoma cells (ATCC Number: CRL-5804) recognised by PTA-2357. The assay can be described thus: competition flow cytometry on NCI-H187 cells against mouse PTA-2357; CHO-K1-derived. On the technique in general: Flow cytometry measures light scatter and fluorescence of single cells or particles in a stream.
For assay [2] the target is unchanged. The experiment in a line: competition flow cytometry on NCI-H187 cells against mouse PTA-2357; NS0-derived.
The target of assay [3] is antigen on NCI-H187 classic small cell lung carcinoma cells (ATCC Number: CRL-5804) recognised by PTA-2358. The assay can be described thus: competition flow cytometry on NCI-H187 cells against mouse PTA-2358; CHO-K1-derived.
Assay [4] has the same target. The assay can be described thus: competition flow cytometry on NCI-H187 cells against mouse PTA-2358; NS0-derived.

B1: PTA-2357 VH4/VK2 IgG1 antibody (antibody, V domains shown)
VH: QVQLVQSGAEVKKPGASVKVSCKGSGYPFTDYTIHWVRQAPGQGLEWIGHISTYSGNTNNNQKFKGRATMTVDKSTSTAYMELRSLRSDDTAVYYCARGDYYGSFYKFEYWGQGTTVTVSS
VL: DIKMTQSPSSLSASVGDRVTITCGASENIYGALNWFQRKPGKAPKLLIYGATNLADGMPSRFSGSGSGRDFTLTISSLQPEDFATYFCQNVLSIPYTFGQGTKLEIK
For the molecule B1, the figures for the Relative IC50 (fold of chimeric PTA-2357) in assay [1] and in assay [2] were 1.5 and 1.34, respectively.

B2: PTA-2357 VH1/VK2 IgG1 antibody (antibody, V domains shown)
VH: B1 VH with A9P, V11L, P41H, T91S, A92T
VL: B1 VL
As to B2, the Relative IC50 (fold of chimeric PTA-2357) stood at 1.2 in assay [1] and 1.06 in assay [2].

B3: PTA-2357 VH5/VK3 IgG1 antibody (antibody, V domains shown)
VH: B1 VH with A68V
VL: B1 VL with K3Q
On to B3, for which the Relative IC50 (fold of chimeric PTA-2357) in assay [1] was more than 3.

B4: PTA-2357 VH3/VK2 IgG1 antibody (antibody, V domains shown)
VH: B1 VH with A92T
VL: B1 VL
As to B4, the results for the Relative IC50 (fold of chimeric PTA-2357) in assay [1] and in assay [2] were 1.57 and 1.06, respectively.

B5: PTA-2357 VH2/VK3 IgG1 antibody (antibody, V domains shown)
VH: B1 VH with P41H, T91S, A92T
VL: B1 VL with K3Q
For the molecule B5, the values for the Relative IC50 (fold of chimeric PTA-2357) in assay [1] and in assay [2] were 0.82 and 1.23, respectively.

B6: PTA-2357 VH5/VK2 IgG1 antibody (antibody, V domains shown)
VH: B1 VH with A68V
VL: B1 VL
Turning to B6, the Relative IC50 (fold of chimeric PTA-2357) in assay [1] amounted to 2.43.

B7: PTA-2357 VH5/VK1 IgG1 antibody (antibody, V domains shown)
VH: B1 VH with A68V
VL: B1 VL with P40Q, K103Q
B7: in assay [1], the Relative IC50 (fold of chimeric PTA-2357) was more than 3.

B8: PTA-2357 VH4/VK3 IgG1 antibody (antibody, V domains shown)
VH: B1 VH
VL: B1 VL with K3Q
Take B8: the Relative IC50 (fold of chimeric PTA-2357) in assay [1] is 2.06.

B9: PTA-2357 VH3/VK3 IgG1 antibody (antibody, V domains shown)
VH: B1 VH with A92T
VL: B1 VL with K3Q
As for B9, the Relative IC50 (fold of chimeric PTA-2357) in assay [1] was determined as 1.64.

B10: PTA-2357 VH2/VK2 IgG1 antibody (antibody, V domains shown)
VH: B1 VH with P41H, T91S, A92T
VL: B1 VL
In the case of B10, the Relative IC50 (fold of chimeric PTA-2357) is 1.36 in assay [1] and 1.16 in assay [2].

B11: PTA-2357 VH2/VK1 IgG1 antibody (antibody, V domains shown)
VH: B1 VH with P41H, T91S, A92T
VL: B1 VL with P40Q, K103Q
B11: in assay [1], the Relative IC50 (fold of chimeric PTA-2357) was more than 3.

B12: PTA-2357 VH1/VK3 IgG1 antibody (antibody, V domains shown)
VH: B1 VH with A9P, V11L, P41H, T91S, A92T
VL: B1 VL with K3Q
Regarding B12, the Relative IC50 (fold of chimeric PTA-2357) in assay [1] was 2.

B13: PTA-2357 VH3/VK1 IgG1 antibody (antibody, V domains shown)
VH: B1 VH with A92T
VL: B1 VL with P40Q, K103Q
For B13, the Relative IC50 (fold of chimeric PTA-2357) in assay [1] is more than 3.

B14: PTA-2357 VH1/VK1 IgG1 antibody (antibody, V domains shown)
VH: B1 VH with A9P, V11L, P41H, T91S, A92T
VL: B1 VL with P40Q, K103Q
For the molecule B14, in assay [1], the Relative IC50 (fold of chimeric PTA-2357) is more than 3.

B15: PTA-2357 VH4/VK1 IgG1 antibody (antibody, V domains shown)
VH: B1 VH
VL: B1 VL with P40Q, K103Q
Consider B15, for which the Relative IC50 (fold of chimeric PTA-2357) in assay [1] was more than 3.

B16: PTA-2358 VH1/VK1 IgG1 antibody (antibody, V domains shown)
VH: EVQLVQSGAELKKPGASVKLSCTASGFNIKDYYMHWVKQAPGQGLEWIGWIDPGNGDTECAPKFQGRATLTADTSINTAYLELSRLRSDDTAVYYCNAPYYSGSSHFDYWGQGTTVTVSS
VL: DIVLTQSPDSLAVSLGERATINCRASKSVSASGYSFLHWYQQKPGQPPKLLIYLASNLESGVPDRFSGSGSGTDFTLTISSLQEEDVATYYCQHSRELRTFGQGTKLEIK
Turning to B16, the Relative IC50 (fold of chimeric PTA-2358) in assay [3] came out at 1.09; in assay [4], 1.11.

B17: PTA-2358 VH1/VK3 IgG1 antibody (antibody, V domains shown)
VH: B16 VH
VL: B16 VL with L4M, E84A, T89V
In turn, B17 registered a Relative IC50 (fold of chimeric PTA-2358) in assay [3] of 2.68.

B18: PTA-2358 VH2/VK2 IgG1 antibody (antibody, V domains shown)
VH: B16 VH with L11V
VL: B16 VL with E84A
As for B18, the Relative IC50 (fold of chimeric PTA-2358) in assay [3] was 1.29; in assay [4], 1.03.

B19: PTA-2358 VH4/VK1 IgG1 antibody (antibody, V domains shown)
VH: B16 VH with L11V, K38R, N77S
VL: B16 VL
Take B19: the Relative IC50 (fold of chimeric PTA-2358) in assay [3] came out at 1.48; in assay [4] it was 2.65.

B20: PTA-2358 VH5/VK3 IgG1 antibody (antibody, V domains shown)
VH: B16 VH with L11V, L20V, K38R, L70I, N77S, L81M
VL: B16 VL with L4M, E84A, T89V
B20 gave a Relative IC50 (fold of chimeric PTA-2358) in assay [3] of more than 3.

B21: PTA-2358 VH3/VK1 IgG1 antibody (antibody, V domains shown)
VH: B16 VH with L11V, K38R
VL: B16 VL
Turning to B21, the Relative IC50 (fold of chimeric PTA-2358) was determined as 1.09 in assay [3] and 1.12 in assay [4].

B22: PTA-2358 VH1/VK2 IgG1 antibody (antibody, V domains shown)
VH: B16 VH
VL: B16 VL with E84A
As for B22, in assay [3], the Relative IC50 (fold of chimeric PTA-2358) was 2.38.

B23: PTA-2358 VH5/VK1 IgG1 antibody (antibody, V domains shown)
VH: B16 VH with L11V, L20V, K38R, L70I, N77S, L81M
VL: B16 VL
As to B23, the Relative IC50 (fold of chimeric PTA-2358) in assay [3] amounted to 1.69; in assay [4], 1.65.

B24: PTA-2358 VH3/VK2 IgG1 antibody (antibody, V domains shown)
VH: B16 VH with L11V, K38R
VL: B16 VL with E84A
Consider B24, for which the Relative IC50 (fold of chimeric PTA-2358) in assay [3] stood at 1.81.

B25: PTA-2358 VH5/VK2 IgG1 antibody (antibody, V domains shown)
VH: B16 VH with L11V, L20V, K38R, L70I, N77S, L81M
VL: B16 VL with E84A
Turning to B25, the figures for the Relative IC50 (fold of chimeric PTA-2358) in assay [3] and in assay [4] were 1.68 and 1.11, respectively.

B26: PTA-2358 VH4/VK3 IgG1 antibody (antibody, V domains shown)
VH: B16 VH with L11V, K38R, N77S
VL: B16 VL with L4M, E84A, T89V
With B26, the Relative IC50 (fold of chimeric PTA-2358) in assay [3] is more than 3.

B27: PTA-2358 VH4/VK2 IgG1 antibody (antibody, V domains shown)
VH: B16 VH with L11V, K38R, N77S
VL: B16 VL with E84A
For B27, the Relative IC50 (fold of chimeric PTA-2358) in assay [3] is 1.68; in assay [4], 1.49.

B28: PTA-2358 VH2/VK1 IgG1 antibody (antibody, V domains shown)
VH: B16 VH with L11V
VL: B16 VL
Take B28: the Relative IC50 (fold of chimeric PTA-2358) is 1.28 in assay [3] and 1.03 in assay [4].

B29: PTA-2358 VH2/VK3 IgG1 antibody (antibody, V domains shown)
VH: B16 VH with L11V
VL: B16 VL with L4M, E84A, T89V
In turn, B29 had a Relative IC50 (fold of chimeric PTA-2358) in assay [3] of more than 3.

B30: PTA-2358 VH3/VK3 IgG1 antibody (antibody, V domains shown)
VH: B16 VH with L11V, K38R
VL: B16 VL with L4M, E84A, T89V
As to B30, the Relative IC50 (fold of chimeric PTA-2358) in assay [3] was found to be 2.43.
